Reference: patent US20190153459A1, “RECOMBINANT POLYNUCLEOTIDE INVOLVED IN LACTONE SYNTHESIS AND PROCESS FOR SYNTHESIS OF LACTONES THEREOF” (Council of Scientific & Industrial Research, priority 2016, published 2019)

How the values were obtained:
MiEH2 [1] = target: T1, MiEH2 (Mangifera indica, UniProt A0A1U9ZCB5); assay: MiEH2 activity assay and enzyme kinetics with epoxide substrates (HRMS); type: biochemical; details: for product formation by MiEH2 with substrate (HRMS extracted ion chromatogram): 200 μM substrate, pH 7.0, 30° C., FIG. 3; for Vmax: recombinant MiEH2, substrate kinetics
T1 sequence (A0A1U9ZCB5 1-318): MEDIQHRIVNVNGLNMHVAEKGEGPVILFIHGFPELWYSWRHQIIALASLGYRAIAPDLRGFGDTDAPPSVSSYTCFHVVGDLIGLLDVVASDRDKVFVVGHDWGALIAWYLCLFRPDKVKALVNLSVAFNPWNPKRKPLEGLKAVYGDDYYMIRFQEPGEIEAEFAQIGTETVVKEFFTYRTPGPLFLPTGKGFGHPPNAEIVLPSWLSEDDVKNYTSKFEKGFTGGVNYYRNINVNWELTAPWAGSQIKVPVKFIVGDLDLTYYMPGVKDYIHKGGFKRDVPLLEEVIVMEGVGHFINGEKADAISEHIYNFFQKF
Method: (§1) Similar activity assays were carried out with protein expressed from empty vector for confirmation of EH2 activity. Optimum pH was determined by calculating activity at varied range of pH in phosphate citrate buffer at 30° C., whereas temperature optima was determined by calculating MiEH2 activity in phosphate citrate buffer pH 7 at various temperatures. After incubation and catalytic activity of EH 2, products were extracted in chloroform:methanol (2:1); completely dried in vacuum evaporator and reconstituted in the methanol. HRMS analysis carried out by accurate mass (molecular ion) identification. […] Extracted compounds from CSO and TSO assay reactions were separated by water (A):methanol (B) solvent gradient, 0-1 min 80% (A)/20% (B); 1-2 min 60% (A)/40% (B); 2-4 min 40% (A)/60% (B); 4-11 min 20% (A)/80% (B); 11-16 min 0% (A)/100% (B), hold for 2 min and again back to 80% (A)/20% (B) in 3 min with 2 min hold at flow rate 500 μl min^−1. […] Quantitative analysis of CSO and TSO assay products was done by plotting standard graph of product standards. Full scans for both programs were acquired on positive ion mode with AGC target value of 1E6, resolution of 70,000 at scan range 100-500 m/z, and maximum ion injection time (IT) of 250 ms.

[2] = substrate: c1ccc([C@H]2O[C@@H]2c2ccccc2)cc1; assay: as above; type: biochemical, Mangifera indica; details: other: recombinant MiEH2, substrate kinetics; pH 7.0
Method: as §1

[3] = substrate: c1ccc([C@H]2O[C@H]2c2ccccc2)cc1; assay: as above; type: biochemical, Mangifera indica; details: other: recombinant MiEH2, substrate kinetics; pH 7.0
Method: as §1

MiEH2 [4] = target: T1, MiEH2; assay: Optimum pH and temperature of MiEH2 activity; type: biochemical
Method: Similar activity assays were carried out with protein expressed from empty vector for confirmation of EH2 activity. Optimum pH was determined by calculating activity at varied range of pH in phosphate citrate buffer at 30° C., whereas temperature optima was determined by calculating MiEH2 activity in phosphate citrate buffer pH 7 at various temperatures. After incubation and catalytic activity of EH 2, products were extracted in chloroform:methanol (2:1); completely dried in vacuum evaporator and reconstituted in the methanol. HRMS analysis carried out by accurate mass (molecular ion) identification. Identified products from assay reaction were confirmed with mass and retention time indices of authentic standards R,R hydrobenzoin and meso hydro benzoin. Extracted compounds from CSO and TSO assay reactions were separated by water (A):methanol (B) solvent gradient, 0-1 min 80% (A)/20% (B); 1-2 min 60% (A)/40% (B); 2-4 min 40% (A)/60% (B); 4-11 min 20% (A)/80% (B); 11-16 min 0% (A)/100% (B), hold for 2 min and again back to 80% (A)/20% (B) in 3 min with 2 min hold at flow rate 500 μl min^−1. […] Quantitative analysis of CSO and TSO assay products was done by plotting standard graph of product standards. Full scans for both programs were acquired on positive ion mode with AGC target value of 1E6, resolution of 70,000 at scan range 100-500 m/z, and maximum ion injection time (IT) of 250 ms.

[5] = system: ethylene treated mango fruits; assay: Transient over expression of SEQ ID No. 1 (MiEH2) in mango fruits via agroinfiltration, lactone content by GC-FID; type: in vivo, Mangifera indica
Method: The full length sequence of MiEH2, i.e. SEQ ID No. 1 was cloned in a pBI121 plant expression vector between CaMV 35S promoter and GusA gene. Terminal primers were designed (Table 1A) to clone genes at BamHI restriction site. Resulted correct oriented construct pBI121+SEQ ID No. 1 and pBI121 empty vector as control were transformed in the Agrobacterium GV3101 strain for transient expression studies. Separate Agrobacterium cultures (5 mL) were initiated from individual colonies in YEB medium having appropriate antibiotics and incubated overnight at 28° C. This culture was transferred to 50 mL induction medium comprising 0.5% beef extract, 0.1% yeast extract, 0.5% peptone, 0.5% sucrose, 2 mM MgSO4, […] acetosyringone, 10 mM MES, pH 5.6, having appropriate antibiotics, and again grown overnight. Cultures were recovered by centrifugation on the next day, resuspended in infiltration medium (10 mM MgCl2, 10 mM MES, […] acetosyringone, pH 5.6) till optical density reached 1.0. This suspension was again incubated at 28° C. with gentle agitation for 2 hrs.
Over expression studies for EH2 were carried out by Agrobacterium mediated infiltration in ethylene treated mango fruits at 3DAH stage by using hypodermic syringe. Equal volumes of said constructs i.e. pBI121+MiEH2 and pBI121 empty vector construct were used for infiltration in two different halves of same mango fruit separated by fruit stone. […] Thus control (empty vector) and test over expressions were carried out in same fruit to avoid error in lactone content analysis. Five distinct mango fruits were used for overexpression study of MiEH2. Infiltrated fruits were kept at 25° C. for 2 days in 12 hr dark and 12 hr light conditions, after 2 days; part from each fruit halves was checked by Gus staining (Kapila et al. 1997; Spolaore et al. 2001) to confirm expression of MiEH2 under 35S promoter along with GusA, remaining part of fruit pulp stored in −80° C. until used for lactone analysis by gas chromatography. […] Lactones were analysed from control and test region of fruits. A total of 8 lactones viz. γ-butyrolactone, δ-valerolactone, γ-hexalactone, δ-hexalactone, γ-octalactone, γ-octalactone, γ-decalactone and δ-decalactone were detected from all tissues in GC-MS analysis.
GC-MSD and GC-FID analysis for lactones was carried out using a 7890B GC system Agilent Technologies coupled with Agilent 5977A MSD (Agilent technologies, CA, USA). […] To understand effect of gene over expression by transient expression on lactone biosynthesis, qualitative and quantitative analysis for lactones alone was carried out in the present study. […] Absolute quantification was done using internal standard by normalizing concentrations of all the lactones with that of known concentration of nonyl acetate.

[6] = pBI121+SEQ ID No. 1 vs empty pBI121 vector in same fruit, 2 days post infiltration

Molecule: c1ccc([C@H]2O[C@H]2c2ccccc2)cc1 [CSO, cis-stilbene oxide]
- product formation by MiEH2 with substrate (HRMS extracted ion chromatogram) (MiEH2 [1]): product formation
- Vmax (MiEH2 [1]): CSO- 26.5252 ± 4.81 μM min^−1mg^−1

Molecule: c1ccc([C@H]2O[C@@H]2c2ccccc2)cc1 (relative stereo) [TSO, trans-stilbene oxide]
- product formation by MiEH2 with substrate (HRMS extracted ion chromatogram) (MiEH2 [1]): product formation
- Vmax (MiEH2 [1]): TSO- 1055.55 ± 55.55 μM min^−1mg^−1

B1: MiEH2 (Mangifera indica) (protein)
chain: MEDIQHRIVNVNGLNMHVAEKGEGPVILFIHGFPELWYSWRHQIIALASLGYRAIAPDLRGFGDTDAPPSVSSYTCFHVVGDLIGLLDVVASDRDKVFVVGHDWGALIAWYLCLFRPDKVKALVNLSVAFNPWNPKRKPLEGLKAVYGDDYYMIRFQEPGEIEAEFAQIGTETVVKEFFTYRTPGPLFLPTGKGFGHPPNAEIVLPSWLSEDDVKNYTSKFEKGFTGGVNYYRNINVNWELTAPWAGSQIKVPVKFIVGDLDLTYYMPGVKDYIHKGGFKRDVPLLEEVIVMEGVGHFINGEKADAISEHIYNFFQKF
- Km [2]: TSO- 0.113 ± 0.003 mM
- Km [3]: CSO- 0.165 ± 0.044 mM

B2: MiEH2: recombinant epoxide hydrolase 2 polypeptide of Mangifera indica, 318 amino acids, 6×His tagged (protein, listed as Mangifera indica)
chain: MEDIQHRIVNVNGLNMHVAEKGEGPVILFIHGFPELWYSWRHQIIALASLGYRAIAPDLRGFGDTDAPPSVSSYTCFHVVGDLIGLLDVVASDRDKVFVVGHDWGALIAWYLCLFRPDKVKALVNLSVAFNPWNPKRKPLEGLKAVYGDDYYMIRFQEPGEIEAEFAQIGTETVVKEFFTYRTPGPLFLPTGKGFGHPPNAEIVLPSWLSEDDVKNYTSKFEKGFTGGVNYYRNINVNWELTAPWAGSQIKVPVKFIVGDLDLTYYMPGVKDYIHKGGFKRDVPLLEEVIVMEGVGHFINGEKADAISEHIYNFFQKF
modifications: 6xHis tag
notes: recombinant epoxide hydrolase 2 polypeptide of Mangifera indica, 318 amino acids, 6×His tagged
- Optimum temperature (MiEH2 [4]; phosphate citrate buffer pH 7, various temperatures): 45 °C
- Optimum pH (MiEH2 [4]; phosphate citrate buffer, 30° C., varied pH): 8

B3: SEQ ID No. 1: 957 bp polynucleotide encoding epoxide hydrolase 2, cloned in pBI121 plant expression vector, agroinfiltrated in mango (nucleic acid)
DNA: ATGGAAGATATACAGCACAGAATTGTGAATGTCAATGGCTTAAACATGCACGTGGCAGAGAAAGGCGAAGGTCCAGTCATTCTCTTCATTCACGGTTTTCCCGAACTGTGGTACTCCTGGCGGCATCAGATCATCGCCTTGGCTTCCCTCGGCTACCGAGCCATTGCTCCGGATCTACGTGGCTTCGGTGATACTGACGCGCCGCCGTCTGTCTCGAGTTACACGTGTTTCCACGTGGTGGGGGACCTCATTGGACTTCTCGACGTCGTTGCCTCTGATCGGGATAAGGTTTTCGTGGTGGGCCATGATTGGGGTGCTCTTATTGCTTGGTACTTGTGCTTGTTTAGACCGGATAAGGTCAAAGCTTTGGTCAACTTGAGTGTTGCGTTTAATCCCTGGAACCCCAAGAGGAAGCCACTTGAGGGTTTGAAAGCTGTTTATGGTGACGATTATTACATGATCAGATTTCAGGAGCCTGGTGAGATAGAAGCTGAGTTTGCCCAGATTGGTACTGAGACAGTTGTCAAGGAATTCTTTACATACAGGACACCTGGTCCTCTTTTTCTCCCTACAGGTAAAGGATTTGGACATCCCCCAAATGCTGAAATTGTCTTACCCTCTTGGCTATCAGAGGATGATGTTAAAAACTACACCAGCAAATTTGAGAAAGGCTTTACAGGAGGAGTGAACTATTACCGTAATATAAACGTGAACTGGGAACTTACAGCTCCTTGGGCCGGGAGTCAAATAAAGGTTCCTGTTAAGTTCATCGTGGGTGACCTGGACCTGACATATTATATGCCAGGAGTCAAGGATTACATACACAAAGGTGGGTTCAAGCGAGATGTGCCATTATTGGAAGAAGTGATTGTAATGGAAGGTGTAGGTCACTTCATTAATGGAGAAAAGGCTGATGCAATCAGTGAGCACATATACAACTTTTTTCAGAAGTTCTGA
modifications: cDNA
notes: 957 bp polynucleotide encoding epoxide hydrolase 2, cloned in pBI121 plant expression vector, agroinfiltrated in mango
- lactone content on transient over expression ([5]; Alphonso mango): significant increase
- increase in γ-hexalactone content compared to control tissue [5, 6]: 1.96 fold
- increase in δ-hexalactone content compared to control tissue [5, 6]: 1.98 fold
- increase in δ-valerolactone content compared to control tissue [5, 6]: 1.46 fold
